Source: IntAct's records for PubMed 23333653

Target: T1, cata_human CAT (UniProt P04040)
T1 sequence: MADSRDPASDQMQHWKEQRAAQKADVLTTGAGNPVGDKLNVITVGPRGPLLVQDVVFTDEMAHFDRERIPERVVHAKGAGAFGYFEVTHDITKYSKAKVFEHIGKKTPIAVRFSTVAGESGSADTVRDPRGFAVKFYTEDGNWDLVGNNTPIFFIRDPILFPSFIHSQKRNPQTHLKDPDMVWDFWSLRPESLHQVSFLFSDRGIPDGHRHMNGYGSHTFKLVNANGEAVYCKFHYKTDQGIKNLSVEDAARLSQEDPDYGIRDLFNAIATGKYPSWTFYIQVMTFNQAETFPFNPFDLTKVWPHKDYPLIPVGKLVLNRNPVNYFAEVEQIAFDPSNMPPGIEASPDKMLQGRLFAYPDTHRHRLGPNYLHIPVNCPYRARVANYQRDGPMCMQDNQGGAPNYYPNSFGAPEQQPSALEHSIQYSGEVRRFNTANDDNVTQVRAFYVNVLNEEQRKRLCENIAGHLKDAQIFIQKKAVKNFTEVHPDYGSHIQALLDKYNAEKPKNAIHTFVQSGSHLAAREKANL

Substance: Ras-related protein Rab-14 (Homo sapiens) (from UniProt P61106) Q70N
- effect of a mutation on the interaction: increasing interaction
